# B1: EEHEE_rd3_1049 (parent)
# chain: TTVKLGDIKVTFDNPEKAKKYAQKLAKIYQLTVHVHGDTIHVK
# Variants of: B1
# Assay: folding stability dG (cDNA display proteolysis); higher = more stable
# Details: PBS, room temperature
row,Variant,folding stability dG
1,TTVKLGDIKVTFDNPEKAKKYAQKLAKIYQETVHVHGDTIHVK,0.002 kcal/mol
2,TTVKLGDIKVTFDNPEKAKKYAQKLAKIYQATVHVHGDTIHVK,1.56 kcal/mol
3,TTVKLGDIKVTFDNPEKAKKYAQKLAKIYQTTVHVHGDTIHVK,1.06 kcal/mol
4,TTVKLGDIKVTFDNPEKAKKYAQKLAKIYQMTVHVHGDTIHVK,2.18 kcal/mol
5,TTVKLGDIKVTFDNPEKAKKYAQKLAKIYQQTVHVHGDTIHVK,0.409 kcal/mol
6,TTVKLGDIKVTFDNPEKAKKYAQKLAKIYQNTVHVHGDTIHVK,0.271 kcal/mol
7,TTVKLGDIKVTFDNPEKAKKYAQKLAKIYQYTVHVHGDTIHVK,1.31 kcal/mol
8,TTVKLGDIKVTFDNPEKAKKYAQKLAKIYQHTVHVHGDTIHVK,0.811 kcal/mol
9,TTVKLGDIKVTFDNPEKAKKYAQKLAKIYQITVHVHGDTIHVK,1.05 kcal/mol
10,TTVKLGDIKVTFDNPEKAKKYAQKLAKIYQWTVHVHGDTIHVK,1.26 kcal/mol
11,TTVKLGDIKVTFDNPEKAKKYAQKLAKIYQDTVHVHGDTIHVK,-0.096 kcal/mol
12,TTVKLGDIKVTFDNPEKAKKYAQKLAKIYQSTVHVHGDTIHVK,0.893 kcal/mol
13,TTVKLGDIKVTFDNPEKAKKYAQKLAKIYQGTVHVHGDTIHVK,1.66 kcal/mol
14,TTVKLGDIKVTFDNPEKAKKYAQKLAKIYQFTVHVHGDTIHVK,1.49 kcal/mol
15,TTVKLGDIKVTFDNPEKAKKYAQKLAKIYQKTVHVHGDTIHVK,0.541 kcal/mol
16,TTVKLGDIKVTFDNPEKAKKYAQKLAKIYQRTVHVHGDTIHVK,0.613 kcal/mol
17,TTVKLGDIKVTFDNPEKAKKYAQKLAKIYQPTVHVHGDTIHVK,-0.519 kcal/mol
18,TTVKLGDIKVTFDNPEKAKKYAQKLAKIYQVTVHVHGDTIHVK,1.08 kcal/mol
19,TTVKLGDIKVTFDNPEKAKKYAQKLAKIYQLTVHVGGDTIHVK,1.16 kcal/mol
20,TTVKLGDIKVTFDNPEKAKKYAQKLAKIYQLTVHVAGDTIHVK,2.12 kcal/mol
21,TTVKLGDIKVTFDNPEKAKKYAQKLAKIYQLTVHVIGDTIHVK,2.73 kcal/mol
22,TTVKLGDIKVTFDNPEKAKKYAQKLAKIYQLTVHVMGDTIHVK,2.46 kcal/mol
23,TTVKLGDIKVTFDNPEKAKKYAQKLAKIYQLTVHVRGDTIHVK,1.96 kcal/mol
24,TTVKLGDIKVTFDNPEKAKKYAQKLAKIYQLTVHVPGDTIHVK,0.039 kcal/mol

row,Variant,folding stability dG
1,TTVKLGDIKVTFDNPEKAKKYAQKLAKIYQLTVHVCGDTIHVK,3.31 kcal/mol
2,TTVKLGDIKVTFDNPEKAKKYAQKLAKIYQLTVHVDGDTIHVK,2.58 kcal/mol
3,TTVKLGDIKVTFDNPEKAKKYAQKLAKIYQLTVHVKGDTIHVK,1.96 kcal/mol
4,TTVKLGDIKVTFDNPEKAKKYAQKLAKIYQLTVHVFGDTIHVK,2.17 kcal/mol
5,TTVKLGDIKVTFDNPEKAKKYAQKLAKIYQLTVHVNGDTIHVK,2.04 kcal/mol
6,TTVKLGDIKVTFDNPEKAKKYAQKLAKIYQLTVHVLGDTIHVK,2.34 kcal/mol
7,TTVKLGDIKVTFDNPEKAKKYAQKLAKIYQLTVHVQGDTIHVK,2.34 kcal/mol
8,TTVKLGDIKVTFDNPEKAKKYAQKLAKIYQLTVHVEGDTIHVK,2.66 kcal/mol
9,TTVKLGDIKVTFDNPEKAKKYAQKLAKIYQLTVHDHGDTIHVK,1.57 kcal/mol
10,TTVKLGDIKVTFDNPEKAKKYAQKLAKIYQLTVHHHGDTIHVK,1.57 kcal/mol
11,TTVKLGDIKVTFDNPEKAKKYAQKLAKIYQLTVHLHGDTIHVK,1.7 kcal/mol
12,TTVKLGDIKVTFDNPEKAKKYAQKLAKIYQLTVHFHGDTIHVK,2.08 kcal/mol
13,TTVKLGDIKVTFDNPEKAKKYAQKLAKIYQLTVHPHGDTIHVK,0.957 kcal/mol
14,TTVKLGDIKVTFDNPEKAKKYAQKLAKIYQLTVHQHGDTIHVK,1.78 kcal/mol
15,TTVKLGDIKVTFDNPEKAKKYAQKLAKIYQLTVHCHGDTIHVK,2.12 kcal/mol
16,TTVKLGDIKVTFDNPEKAKKYAQKLAKIYQLTVHAHGDTIHVK,1.34 kcal/mol
17,TTVKLGDIKVTFDNPEKAKKYAQKLAKIYQLTVHIHGDTIHVK,2.26 kcal/mol
18,TTVKLGDIKVTFDNPEKAKKYAQKLAKIYQLTVHSHGDTIHVK,1.17 kcal/mol
19,TTVKLGDIKVTFDNPEKAKKYAQKLAKIYQLTVHKHGDTIHVK,1.24 kcal/mol
20,TTVKLGDIKVTFDNPEKAKKYAQKLAKIYQLTVHEHGDTIHVK,1.56 kcal/mol
21,TTVKLGDIKVTFDNPEKAKKYAQKLAKIYQLTVHNHGDTIHVK,1.09 kcal/mol
22,TTVKLGDIKVTFDNPEKAKKYAQKLAKIYQLTVHGHGDTIHVK,0.496 kcal/mol
23,TTVKLGDIKVTFDNPEKAKKYAQKLAKIYQLTVHYHGDTIHVK,2.14 kcal/mol
24,TTVKLGDIKVTFDNPEKAKKYAQKLAKIYQLTVHWHGDTIHVK,1.99 kcal/mol

row,Variant,folding stability dG
1,TTVKLGDIKVTFDNPEKAKKYAQKLAKIYQLTVHTHGDTIHVK,1.5 kcal/mol
2,TTVKLGDIKVTFDNPEKAKKYAQKLAKIYQLTVHRHGDTIHVK,1.27 kcal/mol
3,TTVKLGDIKVTFDNPEKAKKYAQKLAKIYQLTGHVHGDTIHVK,0.145 kcal/mol
4,TTVKLGDIKVTFDNPEKAKKYAQKLAKIYQLTFHVHGDTIHVK,1.6 kcal/mol
5,TTVKLGDIKVTFDNPEKAKKYAQKLAKIYQLTNHVHGDTIHVK,-0.39 kcal/mol
6,TTVKLGDIKVTFDNPEKAKKYAQKLAKIYQLTIHVHGDTIHVK,2.37 kcal/mol
7,TTVKLGDIKVTFDNPEKAKKYAQKLAKIYQLTEHVHGDTIHVK,0.147 kcal/mol
8,TTVKLGDIKVTFDNPEKAKKYAQKLAKIYQLTTHVHGDTIHVK,1.11 kcal/mol
9,TTVKLGDIKVTFDNPEKAKKYAQKLAKIYQLTCHVHGDTIHVK,2.12 kcal/mol
10,TTVKLGDIKVTFDNPEKAKKYAQKLAKIYQLTWHVHGDTIHVK,1.85 kcal/mol
11,TTVKLGDIKVTFDNPEKAKKYAQKLAKIYQLTKHVHGDTIHVK,-0.112 kcal/mol
12,TTVKLGDIKVTFDNPEKAKKYAQKLAKIYQLTSHVHGDTIHVK,0.464 kcal/mol
13,TTVKLGDIKVTFDNPEKAKKYAQKLAKIYQLTPHVHGDTIHVK,0.242 kcal/mol
14,TTVKLGDIKVTFDNPEKAKKYAQKLAKIYQLTYHVHGDTIHVK,1.54 kcal/mol
15,TTVKLGDIKVTFDNPEKAKKYAQKLAKIYQLTMHVHGDTIHVK,1.78 kcal/mol
16,TTVKLGDIKVTFDNPEKAKKYAQKLAKIYQLTRHVHGDTIHVK,-0.171 kcal/mol
17,TTVKLGDIKVTFDNPEKAKKYAQKLAKIYQLTHHVHGDTIHVK,0.305 kcal/mol
18,TTVKLGDIKVTFDNPEKAKKYAQKLAKIYQLTQHVHGDTIHVK,0.334 kcal/mol
19,TTVKLGDIKVTFDNPEKAKKYAQKLAKIYQLTDHVHGDTIHVK,-0.143 kcal/mol
20,TTVKLGDIKVTFDNPEKAKKYAQKLAKIYQLTLHVHGDTIHVK,2.1 kcal/mol
21,TTVKLGDIKVTFDNPEKAKKYAQKLAKIYQLTAHVHGDTIHVK,0.869 kcal/mol
22,TTVKLGDIKVTFDNPEKAKKYAQKLAKIYQLRVHVHGDTIHVK,1.4 kcal/mol
23,TTVKLGDIKVTFDNPEKAKKYAQKLAKIYQLNVHVHGDTIHVK,1.43 kcal/mol
24,TTVKLGDIKVTFDNPEKAKKYAQKLAKIYQLWVHVHGDTIHVK,1.48 kcal/mol

row,Variant,folding stability dG
1,TTVKLGDIKVTFDNPEKAKKYAQKLAKIYQLPVHVHGDTIHVK,0.612 kcal/mol
2,TTVKLGDIKVTFDNPEKAKKYAQKLAKIYQLEVHVHGDTIHVK,1.82 kcal/mol
3,TTVKLGDIKVTFDNPEKAKKYAQKLAKIYQLMVHVHGDTIHVK,1.75 kcal/mol
4,TTVKLGDIKVTFDNPEKAKKYAQKLAKIYQLVVHVHGDTIHVK,2.21 kcal/mol
5,TTVKLGDIKVTFDNPEKAKKYAQKLAKIYQLHVHVHGDTIHVK,1.6 kcal/mol
6,TTVKLGDIKVTFDNPEKAKKYAQKLAKIYQLSVHVHGDTIHVK,1.94 kcal/mol
7,TTVKLGDIKVTFDNPEKAKKYAQKLAKIYQLIVHVHGDTIHVK,2.01 kcal/mol
8,TTVKLGDIKVTFDNPEKAKKYAQKLAKIYQLLVHVHGDTIHVK,1.6 kcal/mol
9,TTVKLGDIKVTFDNPEKAKKYAQKLAKIYQLDVHVHGDTIHVK,1.33 kcal/mol
10,TTVKLGDIKVTFDNPEKAKKYAQKLAKIYQLYVHVHGDTIHVK,1.69 kcal/mol
11,TTVKLGDIKVTFDNPEKAKKYAQKLAKIYQLGVHVHGDTIHVK,1.32 kcal/mol
12,TTVKLGDIKVTFDNPEKAKKYAQKLAKIYQLCVHVHGDTIHVK,2.77 kcal/mol
13,TTVKLGDIKVTFDNPEKAKKYAQKLAKIYQLKVHVHGDTIHVK,1.63 kcal/mol
14,TTVKLGDIKVTFDNPEKAKKYAQKLAKIYQLQVHVHGDTIHVK,1.87 kcal/mol
15,TTVKLGDIKVTFDNPEKAKKYAQKLAKIYQLAVHVHGDTIHVK,1.79 kcal/mol
16,TTVKLGDIKVTFDNPEKAKKYAQKLAKIYQLFVHVHGDTIHVK,1.81 kcal/mol
17,TTVKLGDIKVTFDNPEKAKKYAQKLAKIYSLTVHVHGDTIHVK,2.06 kcal/mol
18,TTVKLGDIKVTFDNPEKAKKYAQKLAKIYYLTVHVHGDTIHVK,1.65 kcal/mol
19,TTVKLGDIKVTFDNPEKAKKYAQKLAKIYNLTVHVHGDTIHVK,2.58 kcal/mol
20,TTVKLGDIKVTFDNPEKAKKYAQKLAKIYTLTVHVHGDTIHVK,1.34 kcal/mol
21,TTVKLGDIKVTFDNPEKAKKYAQKLAKIYMLTVHVHGDTIHVK,1.92 kcal/mol
22,TTVKLGDIKVTFDNPEKAKKYAQKLAKIYKLTVHVHGDTIHVK,2.2 kcal/mol
23,TTVKLGDIKVTFDNPEKAKKYAQKLAKIYWLTVHVHGDTIHVK,1.71 kcal/mol
24,TTVKLGDIKVTFDNPEKAKKYAQKLAKIYLLTVHVHGDTIHVK,1.48 kcal/mol

row,Variant,folding stability dG
1,TTVKLGDIKVTFDNPEKAKKYAQKLAKIYPLTVHVHGDTIHVK,0.614 kcal/mol
2,TTVKLGDIKVTFDNPEKAKKYAQKLAKIYRLTVHVHGDTIHVK,1.98 kcal/mol
3,TTVKLGDIKVTFDNPEKAKKYAQKLAKIYVLTVHVHGDTIHVK,1.24 kcal/mol
4,TTVKLGDIKVTFDNPEKAKKYAQKLAKIYQLTVWVHGDTIHVK,2.15 kcal/mol
5,TTVKLGDIKVTFDNPEKAKKYAQKLAKIYQLTVAVHGDTIHVK,1.9 kcal/mol
6,TTVKLGDIKVTFDNPEKAKKYAQKLAKIYQLTVVVHGDTIHVK,2.59 kcal/mol
7,TTVKLGDIKVTFDNPEKAKKYAQKLAKIYQLTVLVHGDTIHVK,2.06 kcal/mol
8,TTVKLGDIKVTFDNPEKAKKYAQKLAKIYQLTVTVHGDTIHVK,2.12 kcal/mol
9,TTVKLGDIKVTFDNPEKAKKYAQKLAKIYQLTVRVHGDTIHVK,1.64 kcal/mol
10,TTVKLGDIKVTFDNPEKAKKYAQKLAKIYQLTVPVHGDTIHVK,-0.084 kcal/mol
11,TTVKLGDIKVTFDNPEKAKKYAQKLAKIYQLTVGVHGDTIHVK,0.853 kcal/mol
12,TTVKLGDIKVTFDNPEKAKKYAQKLAKIYQLTVMVHGDTIHVK,2.08 kcal/mol
13,TTVKLGDIKVTFDNPEKAKKYAQKLAKIYQLTVIVHGDTIHVK,2.44 kcal/mol
14,TTVKLGDIKVTFDNPEKAKKYAQKLAKIYQLTVDVHGDTIHVK,1.58 kcal/mol
15,TTVKLGDIKVTFDNPEKAKKYAQKLAKIYQLTVEVHGDTIHVK,2.46 kcal/mol
16,TTVKLGDIKVTFDNPEKAKKYAQKLAKIYQLTVCVHGDTIHVK,3.12 kcal/mol
17,TTVKLGDIKVTFDNPEKAKKYAQKLAKIYQLTVSVHGDTIHVK,2.03 kcal/mol
18,TTVKLGDIKVTFDNPEKAKKYAQKLAKIYQLTVQVHGDTIHVK,2.11 kcal/mol
19,TTVKLGDIKVTFDNPEKAKKYAQKLAKIYQLTVFVHGDTIHVK,2.39 kcal/mol
20,TTVKLGDIKVTFDNPEKAKKYAQKLAKIYQLTVYVHGDTIHVK,2.39 kcal/mol
21,TTVKLGDIKVTFDNPEKAKKYAQKLAKIYQLTVKVHGDTIHVK,1.71 kcal/mol
22,TTVKLGDIKVTFDNPEKAKKYAQKLAKIYQLTVNVHGDTIHVK,1.34 kcal/mol
